In article PMC6555848 (2019) one finds Kd and koff data, which are given here for one molecule.

Test [1] addresses T1, His-tagged ABL1 kinase (UniProt P00519 1-1130). As to the kind of experiment: SPR; two-state model. In general terms: In SPR one partner is held on a chip, and binding of the other changes the refractive index at the surface.
For test [2], the target named is T1, His-tagged ABL1 kinase. Put plainly: SPR; two-state model, kd1.

T1 sequence (P00519 whole entry): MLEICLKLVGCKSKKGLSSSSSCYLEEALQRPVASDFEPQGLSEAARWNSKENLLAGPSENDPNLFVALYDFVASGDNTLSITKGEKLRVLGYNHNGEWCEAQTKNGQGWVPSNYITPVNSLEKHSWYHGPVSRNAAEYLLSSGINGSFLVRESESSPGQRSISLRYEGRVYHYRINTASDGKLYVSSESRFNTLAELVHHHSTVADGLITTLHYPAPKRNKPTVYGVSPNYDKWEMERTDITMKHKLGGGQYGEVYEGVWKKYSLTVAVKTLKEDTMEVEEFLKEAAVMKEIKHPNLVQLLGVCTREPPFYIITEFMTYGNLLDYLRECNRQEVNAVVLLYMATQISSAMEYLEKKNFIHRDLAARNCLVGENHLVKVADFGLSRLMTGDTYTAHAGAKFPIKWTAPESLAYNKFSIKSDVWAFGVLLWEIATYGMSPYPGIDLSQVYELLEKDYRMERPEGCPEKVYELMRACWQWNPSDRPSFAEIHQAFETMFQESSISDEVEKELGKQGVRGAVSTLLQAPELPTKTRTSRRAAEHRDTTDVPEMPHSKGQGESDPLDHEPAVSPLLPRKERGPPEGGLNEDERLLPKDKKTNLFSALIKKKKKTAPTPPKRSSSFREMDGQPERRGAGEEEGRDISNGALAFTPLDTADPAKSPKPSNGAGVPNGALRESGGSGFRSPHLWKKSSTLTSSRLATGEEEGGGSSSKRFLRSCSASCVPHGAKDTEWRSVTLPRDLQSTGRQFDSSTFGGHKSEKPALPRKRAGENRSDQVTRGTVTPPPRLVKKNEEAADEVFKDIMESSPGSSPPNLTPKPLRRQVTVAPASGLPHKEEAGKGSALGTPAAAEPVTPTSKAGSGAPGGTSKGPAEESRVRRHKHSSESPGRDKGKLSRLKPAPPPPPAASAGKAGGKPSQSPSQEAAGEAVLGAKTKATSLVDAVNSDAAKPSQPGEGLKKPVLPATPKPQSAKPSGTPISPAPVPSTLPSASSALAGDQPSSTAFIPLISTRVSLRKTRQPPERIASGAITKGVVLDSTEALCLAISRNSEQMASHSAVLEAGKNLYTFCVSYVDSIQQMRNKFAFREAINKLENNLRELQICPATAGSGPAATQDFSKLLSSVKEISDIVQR

B1: full-length human STAT5B (M1-S787) (natural protein)
chain: MAVWIQAQQLQGEALHQMQALYGQHFPIEVRHYLSQWIESQAWDSVDLDNPQENIKATQLLEGLVQELQKKAEHQVGEDGFLLKIKLGHYATQLQNTYDRCPMELVRCIRHILYNEQRLVREANNGSSPAGSLADAMSQKHLQINQTFEELRLVTQDTENELKKLQQTQEYFIIQYQESLRIQAQFGPLAQLSPQERLSRETALQQKQVSLEAWLQREAQTLQQYRVELAEKHQKTLQLLRKQQTIILDDELIQWKRRQQLAGNGGPPEGSLDVLQSWCEKLAEIIWQNRQQIRRAEHLCQQLPIPGPVEEMLAEVNATITDIISALVTSTFIIEKQPPQVLKTQTKFAATVRLLVGGKLNVHMNPPQVKATIISEQQAKSLLKNENTRNDYSGEILNNCCVMEYHQATGTLSAHFRNMSLKRIKRSDRRGAESVTEEKFTILFESQFSVGGNELVFQVKTLSLPVVVIVHGSQDNNATATVLWDNAFAEPGRVPFAVPDKVLWPQLCEALNMKFKAEVQSNRGLTKENLVFLAQKLFNNSSSHLEDYSGLSVSWSQFNRENLPGRNYTFWQWFDGVMEVLKKHLKPHWNDGAILGFVNKQQAHDLLINKPDGTFLLRFSDSEIGGITIAWKFDSQERMFWNLMPFTTRDFSIRSLADRLGDLNYLIYVFPDRPKDEVYSKYYTPVPCESATAKAVDGYVKPQIKQVVPEFVNASADAGGGSATYMDQAPSPAVCPQAHYNMYPQNPDSVLDTDGDFDLEDTMDVARRVEELLGRPMDSQWIPHAQS
In general, Kd refers to the concentration at which binding is half-saturated. Low values mean a tighter complex, high ones a looser complex. By koff is commonly meant a measure of how fast the partners let go of each other. Low values mean a long-lived complex, high ones a short-lived complex. For the molecule B1, the Kd with His-tagged ABL1 kinase [1] is 280 nM. This molecule also returned a koff in the test with His-tagged ABL1 kinase [2] of 93.9 s⁻¹.
